In the supplement of paper PMC12636428:

System: Saccharomyces cerevisiae
Assay: transcriptional activation domain activity (GFP:mCherry ratio, weighted mean of sorted bins, harmonized to initial dataset scale) (arbitrary fluorescence ratio units); higher = stronger transcriptional activation
Conditions: beta-estradiol 1 µM; induction time 4 h
How it was run: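 The listed activation activity is a read-weighted mean of bin median fluorescence, averaged across barcodes and linearly mapped onto the initial dataset scale. Barcoded tiles, fused to an estradiol-inducible synthetic transcription factor, were integrated at URA3 in yeast diploids bearing a GFP reporter. Cells were held 4 hours at 30 °C in SC with 1 uM beta-estradiol, sorted into 8 GFP:mCherry bins, and sequenced, and tiles with fewer than 50 reads were excluded.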

Row | Sequence | transcriptional activation domain activity
1 | KQYCVRPNSGRIEPGKSVEVTVLLQAMKAEPPMDAKCRDKFLVQSVAVTADKE | 33600
2 | MKRSAAALVSYPSSDEETSEAQAKSEPIKKKKKLPQLSSSLVVPVPVDNPALH | 41300
3 | ESVRQHIVTETKNRVETYLAHCNPIVPHQRLTLLLARLLLRKLDFVTRLQWIL | 50300
4 | SRWFLVLFLLPYPRASPFFLVLYLFSLILHSRPCLYCIVLLTVLFTSSCYWAP | 53600
5 | MVFDCEFQHIQFSGSLLCLPLWDFFLRCIVCGHRSIFYIFYIIFVILFLHFLT | 30500
6 | MTILVILSILCLFQSYMGGMYSLDAHWVDIGLLRIYCNTLCIKMCQILMQFLL | 22700
7 | MLFSTFFHFMILLCFLLLLCFFYFYDFTYLYGPPMIFYFYYFSLCLYLNKLQF | 41600
8 | DDDDDDVETHSIVHSDLLNDMDSASQRASHNASGFPNFLDTSCSSSFDDHFIF | 69100
9 | VVCRYYHLMMGRTFILLIFTQTLSGLVVYHGVCRSWEVLGCIAHLIKGGIFFF | 55800
10 | MISWLLCFFDFRGDFLYGVLFFCTIFCFAVFGFFFFLQPSTFSFTIFFLCFFS | 31000
11 | AAAAAAAEGDGEGKGKEDGEDKEKEGGNGEAEAEAGAEGKKAAAGAAQKESSN | 35100
12 | PYLFIIRLLRLYKLPLIFMTSPVYIKTLKMMQNALGIGQTVAVIFPLTFWFCI | 27600
13 | AFLCWVAPNNATANFIGAGFGGMGFLNLSLDWSNISNLYNLFLTPWWTQVVVY | 83700
14 | LIVTALVWLFQASTEQFTFVALLMYRLKYPVRRVAWLLKFSAIQNLIPKFGFA | 61200
15 | FMVLFFITLFSFLVLIPFPWSFVSRYVYSSMFMFCIFFSAFLRFHLLLLSFCR | 54900
16 | ATWKLVQIGYRRDESLFLYFFYFYLFLFCFNMCGSSFYLLLLCCHIHIVAHSV | 71000
17 | LHSFRRQNGFIRLNIWDLNPSPKILQLYLLTQTIKRYIVLCLLLNLGFTIAQC | 60700
18 | IQAEGLYQCRYRSYGIECIRYIFFFAMFGFLLKSEWYLSSAFFLGCLWHQLAF | 25300
19 | PWLLLIRYLALGTNLSMVVLTFGIFGLQWNRWISILTLRVYTMFNRKRVILWL | 61100
20 | LLLRSFKTFQLWTGDQCLEYLGDKFRVVLGLPDDWTNKDLGYWLLSKLVLVHL | 73000
21 | MSIEKKFDDDSPIDIEPSRSYDLDTRRRAALAEIDNASFSRFHVKTVIVAGIG | 64400

Row | Sequence | transcriptional activation domain activity
22 | SFMWVLVWLLVHIFKKFATITVDSATINRLARAFSSFDTGTVLTKEVILRLWR | 52100
23 | IFASALLVACFIHVKGVLDFSLYILKITCRADLDVDEWRSHFGMGEYVVYVGM | 61400
24 | NCLLHIMRFLPFLELKQFIIAYRRFDIYACAESAIHLQYLDFFNFWMDPSFLL | 49700
25 | WRGRLVQRRSNDHEIDFVPYKTIYGGFWSHVNPSRLAVPRYLNIFRIIVWLFF | 54400
26 | LIRAVWSHFKADFNAIYLGRLLVLLAYQKRRPRPPTGYNLGHHADPGLHTFWA | 38200
27 | RIVRLSFAYTSFIVLPWQQLSEFRGQAYTVGACLEALRLMPNLLRCAFAAYEL | 53600
28 | FGNPPLIWFFWALFSPLFLFFFFFPIFFLSFPFFSFSFLFSFFVLLGVLKAYL | 22100
29 | PGLVGVFFIFSSPFSGFCFCFCFCLFELIFFFFFFFYYFLSRIGVLTRLSAGF | 45800
30 | IGLLLLSILVIYIFISFPHHTIESGHCTISFTSPIAIFYLLLLNFFLNTYLSF | 36300
31 | YMCTCAWSVIWAQQLYTRGPLLQFIAKHTNYAGKPSMTFNQIVLLWVLYQIQG | 49800
32 | ILLHIYVLGVCYFTFPLFLNGFAHWGLWKLDRITPVENLVQQYILKPYFKSYC | 62900
33 | MLRYFPTYRDEVVNAANYLNVVLSMDAFYYYQFCLNWTSTQLYDTWFNACFRI | 59100
34 | SLWCLVIFPCSLVFLGLVGPVLSWFFLSFLFSWLIGRLVLYLILFLLFVTDWA | 22000
35 | MRAAMDICVLIKMPCPLLKHTPFFTCAVTMAAVVYLSYWSFIATETGDDVIRE | 46700
36 | FDTRGAIYCSRPRMVMMCELMGWDAAFVLMPYTPRWRRHRRLFHQHFNEAVAN | 80200
37 | MIFFLPLVFTSFFFIFFYMYYTVWTLHLSFVKSLEACMNPWIWELYGSTFIHL | 60000
38 | LKSKSVVSSRTAEEKKEISGALGEGMLQQLVVLLGQVPRIILLILKTNDLTRS | 52200
39 | MLCGAMPIVSLFSFYTFFFVFWCYLLKFFSVMAWLSTHIALLPSFFVLLTFSL | 40600
40 | GRAESPYNAKYLTGAFSSGSSNGAATATAASFAVFGMGSETVSSGRSPASNNA | 44500
41 | FPAHFLSLLLTPISFSPLPIFPCTYINFLPLLQYLLLGNFFFGCIIWRPMTFC | 59000
